Measurements published in patent publication US20150071856A1, “ANTAGONISTIC PEPTIDES FOR FRIZZLED-1 AND FRIZZLED-2” (Universiteit Maastricht, priority 2013, published 2015).

What was measured:
[1] = biological target: T1, frizzled-2 (rFzd-2) (Rattus norvegicus, UniProt Q08464); assay: Activity assay: luciferase reporter in HEK superTOPflash cells transfected with frizzled-2; type: cell-based; details: FIG. 3
T1 construct: expressed in transfected cells; host or cells: HEK293 superTOPflash (transient, Fugene6, pcDNA3.1/hygro)
T1 sequence (Q08464 29-570): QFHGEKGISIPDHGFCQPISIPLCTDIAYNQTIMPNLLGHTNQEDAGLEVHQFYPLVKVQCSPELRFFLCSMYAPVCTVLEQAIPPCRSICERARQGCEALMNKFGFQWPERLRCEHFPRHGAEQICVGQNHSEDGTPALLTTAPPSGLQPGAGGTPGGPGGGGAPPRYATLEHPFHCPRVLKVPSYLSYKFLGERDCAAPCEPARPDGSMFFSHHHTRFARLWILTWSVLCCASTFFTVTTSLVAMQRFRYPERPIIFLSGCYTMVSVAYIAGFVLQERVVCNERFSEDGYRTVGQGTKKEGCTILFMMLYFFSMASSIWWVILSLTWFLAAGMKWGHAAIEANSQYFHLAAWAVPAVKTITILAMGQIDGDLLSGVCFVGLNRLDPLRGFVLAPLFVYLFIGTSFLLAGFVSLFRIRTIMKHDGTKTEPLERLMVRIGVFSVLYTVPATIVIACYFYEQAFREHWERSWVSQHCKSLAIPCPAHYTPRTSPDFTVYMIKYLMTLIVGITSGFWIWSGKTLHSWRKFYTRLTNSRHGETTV
Experimental: Human embryonic kidney (HEK) cells were used for screening. These cells have a luciferase construct stably transfected into the genome (see FIG. 2A), such that when the frizzled receptor is activated and β-catenin is increased, the luciferase is activated by transcription and light can be measured.
The peptides were tested by transfecting the frizzled-1 or the frizzled-2 receptor and addition of UM206(S-S) to the cell culture. For testing antagonistic activity, UM206 was added and the natural ligand Wnt3a was added, which is a natural stimulus for the canonical pathway.
Day 2: Transfection 12-Well Plates • heat Fugene6 and DNA 15 minutes at RT • 2 ml serum-free medium in tube • add 3 μl fugene • add 2 μg DNA • incubate 30 minutes at RT • wash with PBS • add 50 μl transfectiemix • add 1 ml antibiotica-free medium
Day 3: Add Conditioned Medium or UM206
Day 4: Luciferase Activity Measurements • remove medium • wash with PBS • add 500 μl ⅕ lysisbuffer • shake for 60 minutes • centrifuge in tube • 20 μl lysaat and 50 μl luciferase in new tube for measurement • vortex • measure
Three areas of high homology that contained two cysteines are underlined (UM207), (UM208) and (UM206). In FIGS. 9B through 9D, the inhibitory effect of these three peptides on Wnt3a-induced luciferase activity in HEK293-superTOPflash is shown. […]

[2] = system: Fzd-1 and -2; assay: Binding of rhodamine-labeled UM206 to frozen sections of mouse kidney and small intestine and its blocking; details: UM206-rhodamine 1.10^−8 M; UM207 1.10^−7 M, Wnt3a 1.10^−8 M
Experimental: Specificity of the binding site was confirmed by prior incubation of the tissue sections with UM207 (1.10^−7 M) or recombinant Wnt3a (1.10^−8 M).
One-half of the hearts of the mice was embedded in paraffin and cut in 4 μm sections. The paraffin sections were rehydrated and washed in PBS. One section was stained with AZAN, allowing an accurate determination of the infarct size. To visualize the myofibroblasts in the infarct area, the sections were incubated with an antibody directed against α-smooth muscle actin (Sigma-Aldrich), followed by incubation with the peroxidase-conjugated secondary antibody (Vector laboratories). Nuclei were visualized by hematoxylin. Photos were taken with a Leica (CTR500, 63×/0.85) camera and analyzed with the Quantimet program (QWin/QGo). An examiner blinded to the groups of the animals obtained all measurements. For the experiments with Rhodamine-labeled UM206, frozen sections (4 μm) of mouse kidney and small intestine were used.

[3] = system: canonical Wnt signaling; assay: Activity assay (Example 1): TOPflash luciferase reporter in HEK (HEK293-superTOPflash) cells, receptor not specified; type: cell-based, human; details: no Fzd transfection

B1: Wnt3a: natural ligand of frizzled, natural stimulus for the canonical pathway; recombinant or conditioned medium (protein)
chain: SYPIWWSLAVGPQYSSLGSQPILCASIPGLVPKQLRFCRNYVEIMPSVAEGIKIGIQECQHQFRGRRWNCTTVHDSLAIFGPVLDKATRESAFVHAIASAGVAFAVTRSCAEGTAAICGCSSRHQGSPGKGWKWGGCSEDIEFGGMVSREFADARENRPDARSAMNRHNNEAGRQAIASHMHLKCKCHGLSGSCEVKTCWWSQPDFRAIGDFLKDKYDSASEMVVEKHRESRGWVETLRPRYTYFKVPTERDLVYYEASPNFCEPNPETGSFGTRDRTCNVSSHGIDGCDLLCCGRGHNARAERRREKCRCVFHWCCYVSCQECTRVYDVHTCK
[1]
  concentration-dependent increase of the luciferase activity, in combination with frizzled-2: twelve-fold
[2]
  blocking of UM206-rhodamine binding by prior incubation: completely abolished the binding of UM206-rhodamine
[3]
  increase of luciferase activity: ~450 fold
